Measured values from US6500428B1, “Antibodies to a lymphocyte surface receptor that binds CAML and methods of use thereof” (St. Jude Children's Research Hospital, priority 1997, dated 2002).

T1: TACI-1 (Homo sapiens, UniProt O14836)
T1 sequence (O14836 1-293): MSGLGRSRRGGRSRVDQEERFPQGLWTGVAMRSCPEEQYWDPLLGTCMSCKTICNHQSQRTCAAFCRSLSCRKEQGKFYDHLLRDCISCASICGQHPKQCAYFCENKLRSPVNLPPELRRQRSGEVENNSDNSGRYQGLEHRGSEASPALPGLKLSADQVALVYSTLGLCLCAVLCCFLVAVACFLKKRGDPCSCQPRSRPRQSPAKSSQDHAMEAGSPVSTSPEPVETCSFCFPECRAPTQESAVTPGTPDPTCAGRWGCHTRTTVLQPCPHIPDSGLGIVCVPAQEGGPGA


Experiments:
[1] = biological target: T1, TACI-1; experiment: NF-AT-driven secreted alkaline phosphatase reporter in TAg Jurkat T cells transfected with TACI-1; format: cell-based; design: expressed in transfected cells; host or cells: TAg Jurkat T cells, plasmid pBJ5-TACI-1; details: antibody-cross linked TACI-1 in TAg Jurkat T cells; CsA 100 ng/ml, FK506 500 pg/ml; EGTA increasing concentrations; CAML(1-146) co-transfected
Experimental: FIG. 4. TACI-1 is a signaling protein that functions in the activation of NF-AT-specific transcription. FIG. 4A depicts the activation of an NF-AT-driven secreted alkaline phosphatase reporter. TAg Jurkat T cells, co-transfected with the SXNFAT reporter [Bram et al., Mol. Cell. Biol., 13:4760-4769 (1993)] and the expression plasmid pBJ5 [Takebe, Y, et al., Mol. Cell. Biol., 8:466-472 (1988)] containing either TACI-1-encoding cDNA (solid triangles) or nothing (circles), were treated with 50 ng/ml PMA and the indicated amounts of ionomycin in the presence (closed symbols) and absence (open symbols) of magnetic beads coated with immunoaffinity-purified anti-TACI-1 polyclonal antibodies. […] NF-AT activation was determined in TAg Jurkat T cells co-transfected with SXNFAT and pBJ5 (−TACI-1, left) or pBJ5-TACI-1 (+TACI-1, right), and treated with the indicated combinations of PMA (50 ng/ml), ionomycin (2 μM), CsA (100 ng/ml) and FK506 (500 pg/ml) in the presence of anti-TACI-1 antibody-coated beads (‘NS’, not stimulated). […] NF-AT activation was measured in the presence of EGTA in Jurkat T cells over expressing TACI-1. […] AP-1 activation was measured in TAg Jurkat T cells, co-transfected with a mouse metallothionein AP-1-SEAP reporter [Bram et al., 1991, supra] and pBJ5 containing no insert (−TACI-1, left) or TACI-1 cDNA (+TACI-1, right). […]

[2] = system: PMA plus ionomycin-induced NF-AT activity; experiment: PMA plus ionomycin-induced NF-AT activity in Jurkat T cells (specificity control); format: cell-based, human; details: co-transfection in Jurkat T cells
Experimental: To examine whether TACI-1 signaling depends on the association of TACI-1 with CAML. the interacting domain of CAML (residues 1-146) is tested to determine if it can inhibit TACI-1-induced NF-AT activation in a dominant negative fashion. […] CAML(1-146) lacks the hydrophobic transmembrane domains that are required for Ca^2+ influx activity [Holloway & Bram, Biol. Chem., 271:8549-8552 (1996)].

[3] = biological target: T1, TACI-1; experiment: Co-immunoprecipitation with FLAG-tagged TACI-1 from 293T cell lysates; format: binding; details: anti-FLAG agarose beads
Experimental: FIGS. 5A-5D. TACI-1 interaction with CAML is critical for Ca^2+ signaling. […] Full-length cDNAs and indicated deletion mutants of TACI-1 and CAML were cloned into the yeast expression plasmids pACT and/or pAS1, and the indicated combinations were tested for interaction with the yeast 2-hybrid system (‘+’, positive interaction; ‘−’, no interaction; ‘ND’, not done). FIG. 5D depicts the co-immunoprecipitation of CAML with TACI-1. 293T cells were transfected with the indicated combinations of the expression plasmid pBJ5 containing cDNAs for CAML. TACI-1 with an N-terminal FLAG tag, the N-terminal 146 amino acids of CAML (CLX91), or no insert. After incubation for 48 hours, the cells were lysed (1% dodecyl maltoside, 20 […] HEPES pH 7.4. 150 mM NaCl, 10% glycerol, 2 mM MgSO4, 1 mM CaCl2, 1 mM PMSF) and the lysate was clarified by centrifugation. FLAG-tagged TACI-1 and associated proteins were immunoprecipitated with anti-FLAG monoclonal antibody-conjugated agarose beads and subjected to Western transfer using standard protocols. […] NF-AT activation was determined in TAg Jurkat cells transfected with pBJ5 alone, pBJ5-TACI-1 plus the control plasmid, or pBJ5-TACI-1 with an equivalent amount of CLX91, following treatment with TACI-1-specific antibodies (top). TACI-1 expression in these transfections was determined by Western blot using anti-TACI-1 polyclonal antibodies (bottom). […]

effect on TACI-1-mediated NF-AT activation [1]	co-immunoprecipitation with TACI-1 [3]	Molecule	effect on PMA plus ionomycin-induced NF-AT activity [2]
inhibition	–	O=C(O)CN(CCOCCOCCN(CC(=O)O)CC(=O)O)CC(=O)O [EGTA, reference compound]	–
completely eliminates	co-immunoprecipitated	CAML(1-146): N-terminal 146 amino acids of CAML, expressed from plasmid; dominant negative inhibitor of TACI-1 signaling (protein, UniProt P49069 1-146, looked up, fragment) MESMAVATDGGERPGVPAGSGLSASQRRAELRRRKLLMNSEQRINRIMGFHRPGSGAEEESQTKSKQQDSDKLNSLSVPSVSKRVVLGDSVSTGTTDQQGGVAEVKGTQLGDKLDSFIKPPECSSDVNLELRQRNRGDLTADSVQR	no inhibitory effect
